Target: T1, CD20 (Homo sapiens, UniProt P11836)
T1 chain: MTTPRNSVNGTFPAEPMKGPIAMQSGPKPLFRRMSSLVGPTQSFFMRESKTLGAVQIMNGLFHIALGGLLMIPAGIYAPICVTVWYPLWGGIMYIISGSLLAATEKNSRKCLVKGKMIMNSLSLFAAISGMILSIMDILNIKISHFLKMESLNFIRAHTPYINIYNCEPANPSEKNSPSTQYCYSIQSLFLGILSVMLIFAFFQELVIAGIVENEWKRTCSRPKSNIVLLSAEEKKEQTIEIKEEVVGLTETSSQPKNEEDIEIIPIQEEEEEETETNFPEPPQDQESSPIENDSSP
Experiment: saturation binding

B1: Rituximab (antibody, V domains shown)
VH: QVQLQQPGAELVKPGASVKMSCKASGYTFTSYNMHWVKQTPGRGLEWIGAIYPGNGDTSYNQKFKGKATLTADKSSSTAYMQLSSLTSEDSAVYYCARSTYYGGDWYFNVWGAGTTVTVSA
VL: QIVLSQSPAILSASPGEKVTMTCRASSSVSYIHWFQQKPGSSPKPWIYATSNLASGVPVRFSGSGSGTSYSLTISRVEAEDAATYYCQQWTSNPPTFGGGTKLEIK
modifications: 90Y-DOTA conjugated
- Kd: 2.84 nM
